This is an account of results in article doi:10.1101/2025.05.02.651988 (bioRxiv, 2025).

What all share (experiment): cryo-EM structure
Series [1] concerns the molecule itself.
Series [2] concerns the target E. coli RNA polymerase σ70 subunit (E. coli, UniProt P00579 1-613).
Series [3] deals with the molecule itself. This is another data set of the same source.

Where two headings read alike, the source gives them in different places.

Sequence of E. coli RNA polymerase σ70 subunit (P00579 whole entry): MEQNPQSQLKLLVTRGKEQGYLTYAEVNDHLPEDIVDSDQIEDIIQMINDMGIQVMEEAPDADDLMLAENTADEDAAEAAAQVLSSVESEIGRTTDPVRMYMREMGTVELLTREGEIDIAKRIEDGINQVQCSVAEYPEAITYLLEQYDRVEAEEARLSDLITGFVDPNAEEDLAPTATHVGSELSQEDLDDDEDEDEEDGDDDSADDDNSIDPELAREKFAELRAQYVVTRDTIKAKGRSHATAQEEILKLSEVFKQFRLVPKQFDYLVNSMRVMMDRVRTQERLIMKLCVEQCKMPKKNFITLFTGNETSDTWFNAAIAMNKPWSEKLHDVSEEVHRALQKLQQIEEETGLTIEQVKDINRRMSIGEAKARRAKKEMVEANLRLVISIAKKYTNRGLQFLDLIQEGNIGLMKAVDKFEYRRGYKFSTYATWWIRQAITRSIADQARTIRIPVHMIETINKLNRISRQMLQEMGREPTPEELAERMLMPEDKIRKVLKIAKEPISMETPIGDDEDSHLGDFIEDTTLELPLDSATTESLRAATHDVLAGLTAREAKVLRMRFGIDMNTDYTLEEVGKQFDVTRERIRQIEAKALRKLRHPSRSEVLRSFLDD

B1: phage Mu late gene transcription activator C (natural protein, bacteriophage Mu, UniProt P06022 1-140, looked up)
chain: MQHDLFEHDPAIRQLIGHIDNIPAPELESRWPRSVVDLIDVLENELKRQNVSNPRELARKQAVALSCFLGGRQFYIPCGDTILTALRDDLLYCQFNGRNMEELRRQYRLSQPQIYQIIARQRKLHTRRHQPDLFSPETPK
By stoichiometry N is commonly meant a count of units in the complex or per binding partner. For the molecule B1, the “stoichiometry N” value in series [1] was 4.

B2: phage Mu middle operon regulator Mor (natural protein, bacteriophage Mu, UniProt P23848 1-129, looked up)
chain: MTEDLFGDLQDDTILAHLDNPAEDTSRFPALLAELNDLLRGELSRLGVDPAHSLEIVVAICKHLGGGQVYIPRGQALDSLIRDLRIWNDFNGRNVSELTTRYGVTFNTVYKAIRRMRRLKYRQYQPSLL
Regarding B2, the binding result in series [2] was “binds”. The “stoichiometry N” value in series [3] was 4.
